In patent publication US20260034246A1 (REGENXBIO, published 2026) one finds Kd data, which are given here for six molecules.

In assay [1] the target is T1, Mouse Complement C5 Protein (mouse, UniProt P06684 19-1680, limits assumed, biotinylated in the Octet assay (sites not given)).
T1 construct: native C5 of normal mouse serum in the hemolysis assays; also called Mouse C5; mC5
The assay can be described thus: BLI (OctetRED384), biotinylated mouse C5 on SA biosensor, BB5.1 scFv.LH as analyte, 30 C.

Assay [2] has as its target T2, Cyno Complement C5 Protein (cynomolgous macaque).
T2 construct: also called Cyno C5; Biotinylated cyno C5 antigen
The assay can be described thus: BLI (OctetRED384), biotinylated cyno C5 on SA biosensor, Crovalimab IgG as analyte, 30 C.
Experimental: The assay was performed at 30° C. and at 1000 rpm. Biotinylated cyno C5 antigen was firstly immobilized onto SA biosensor.

Assay [3] has as its target T1, Mouse Complement C5 Protein. As to the kind of experiment: BLI (OctetRED384), biotinylated mouse C5 on SA biosensor, Crovalimab IgG as analyte, 30 C.
Experimental: (§1) The assay was performed at 30° C. and at 1000 rpm. Biotinylated mouse C5 antigen was firstly immobilized onto SA biosensor.
In assay [4] the target is T2, Cyno Complement C5 Protein. As to the kind of experiment: BLI (OctetRED384), biotinylated cyno C5 on SA biosensor, Crovalimab-Fab-His6 as analyte, 30 C.
In assay [5] the target is T1, Mouse Complement C5 Protein. As to the kind of experiment: BLI (OctetRED384), biotinylated mouse C5 on SA biosensor, Crovalimab-Fab-His6 as analyte, 30 C.
Experimental: as §1
In assay [6] the target is T2, Cyno Complement C5 Protein. The assay can be described thus: BLI (OctetRED384), biotinylated cyno C5 on SA biosensor, Crovalimab scFv.HL as analyte, 30 C.
For assay [7], the target named is T1, Mouse Complement C5 Protein. As to the kind of experiment: BLI (OctetRED384), biotinylated mouse C5 on SA biosensor, Crovalimab scFv.HL as analyte, 30 C.
Experimental: as §1
For assay [8] the target is unchanged. As to the kind of experiment: BLI (OctetRED384), biotinylated mouse C5 on SA biosensor, BB5.1 IgG as analyte, 30 C.
Experimental: as §1
Assay [9] shares this target. The assay can be described thus: BLI (OctetRED384), biotinylated mouse C5 on SA biosensor, BB5.1-Fab-His6 as analyte, 30 C.
Experimental: as §1

B1: BB5.1 scFv.LH (scFv)
scFv: NIMMTQSPSSLAVSAGEKVTMSCKSSQSVLYSSNQKNYLAWYQQKPGQSPKLLIYWASTRESGVPDRFTGSGSGTDFTLTISSVQAEDLAVYYCHQYLSSRTFGGGTKLEIKRGGGGSGGGGSGGGGSQVQLQQPGAELVRPGTSVKLSCKASGYTFTSSWMHWVKQRPGQGLEWIGVIDPSDSYTNYNQKFKGKATLTVDTSSSTAYMQLSSLTSEDSAVYYCARGGGSSYNRYFDVWGTGTTVTVSS
notes: also called Anti-mC5 scFV; BB5.1 scFv mAb
Turning to B1, in [1], the affinity, expressed as Kd, was 3.69 nM. This counts as single-digit nanomolar.

B2: Crovalimab IgG (full-length mAb) (antibody, V domains shown)
VH: QVQLVESGGGLVQPGRSLRLSCAASGFTVHSSYYMAWVRQAPGKGLEWVGAIFTGSGAEYKAEWAKGRVTISKDTSKNQVVLTMTNMDPVDTATYYCASDAGYDYPTHAMHYWGQGTLVTVSS
VL: DIQMTQSPSSLSASVGDRVTITCRASQGISSSLAWYQQKPGKAPKLLIYGASETESGVPSRFSGSGSGTDFTLTISSLQPEDFATYYCQNTKVGSSYGNTFGGGTKVEIKR
notes: also called Anti-hC5 IgG; Crovalimab full-length mAb
Take B2: the figures for the equilibrium dissociation constant (Kd) in assay [2] and in assay [3] were 0.0131 nM and 0.0229 nM, respectively.

B3: Crovalimab-Fab-His6 (Fab, V domains shown)
VH: QVQLVESGGGLVQPGRSLRLSCAASGFTVHSSYYMAWVRQAPGKGLEWVGAIFTGSGAEYKAEWAKGRVTISKDTSKNQVVLTMTNMDPVDTATYYCASDAGYDYPTHAMHYWGQGTLVTVSS
VL: DIQMTQSPSSLSASVGDRVTITCRASQGISSSLAWYQQKPGKAPKLLIYGASETESGVPSRFSGSGSGTDFTLTISSLQPEDFATYYCQNTKVGSSYGNTFGGGTKVEIKR
notes: also called Anti-hC5 Fab; Crovalimab Fab mAb
For the molecule B3, the Kd came out at 0.0602 nM in [4] and 4.14 nM in assay [5].

B4: Crovalimab scFv.HL (scFv)
scFv: QVQLVESGGGLVQPGRSLRLSCAASGFTVHSSYYMAWVRQAPGKGLEWVGAIFTGSGAEYKAEWAKGRVTISKDTSKNQVVLTMTNMDPVDTATYYCASDAGYDYPTHAMHYWGQGTLVTVSSGGGGSGGGGSGGGGSDIQMTQSPSSLSASVGDRVTITCRASQGISSSLAWYQQKPGKAPKLLIYGASETESGVPSRFSGSGSGTDFTLTISSLQPEDFATYYCQNTKVGSSYGNTFGGGTKVEIKR
notes: also called Anti-hC5 scFV; Crovalimab scFv mAb
For B4, the Kd was found to be 0.0845 nM in [6] and 4.54 nM in assay [7].

B5: BB5.1 IgG (full-length mAb) (antibody, V domains shown)
VH: QVQLQQPGAELVRPGTSVKLSCKASGYTFTSSWMHWVKQRPGQGLEWIGVIDPSDSYTNYNQKFKGKATLTVDTSSSTAYMQLSSLTSEDSAVYYCARGGGSSYNRYFDVWGTGTTVTVSS
VL: NIMMTQSPSSLAVSAGEKVTMSCKSSQSVLYSSNQKNYLAWYQQKPGQSPKLLIYWASTRESGVPDRFTGSGSGTDFTLTISSVQAEDLAVYYCHQYLSSRTFGGGTKLEIKR
notes: Surrogate anti-mouse C5 mAb; purified recombinant protein expressed in HEK293 cells; also called Anti-mC5 IgG; BB5.1 full-length mAb
The molecule B5 displayed a Kd in assay [8] of 0.0121 nM.

B6: BB5.1-Fab-His6 (Fab, V domains shown)
VH: QVQLQQPGAELVRPGTSVKLSCKASGYTFTSSWMHWVKQRPGQGLEWIGVIDPSDSYTNYNQKFKGKATLTVDTSSSTAYMQLSSLTSEDSAVYYCARGGGSSYNRYFDVWGTGTTVTVSS
VL: NIMMTQSPSSLAVSAGEKVTMSCKSSQSVLYSSNQKNYLAWYQQKPGQSPKLLIYWASTRESGVPDRFTGSGSGTDFTLTISSVQAEDLAVYYCHQYLSSRTFGGGTKLEIKR
notes: also called Anti-mC5 Fab; BB5.1 Fab mAb
With B6, the Kd in assay [9] amounted to 3.47 nM.

A word on the Kd: it is the concentration at which binding is half-saturated. Low readings indicate a tighter complex, high ones a looser complex.
